Assay results reported in the nanobody polyreactivity screen of Harvey et al. (2022).

Assay: yeast display, Sf9 membrane polyspecificity reagent, FACS + sequencing; frameworks hold sequencing errors
Procedure, shortened: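 Genes from sorted yeast were amplified by colony PCR, read by MiSeq 2 × 250 sequencing and filtered on CDR length. These cells carried a synthetic nanobody library in Saccharomyces cerevisiae BJ5465 and were sorted by FACS into low and high (top ~1%) gates on anti-HA and streptavidin fluorescence. Polyreactivity is labelled according to the gate of origin.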

Sequence | polyreactivity (PSR sort gate)
QVQLVESGGGLVQAGGSLRLSCAASGNIFHDNAMGWYREAPGKERELVAAISDSGGSTYYADSVKGRFTISRDNAKNTVYFQMNSLQPEDTAVYYCDSGRTYYAPYQWWYDYWGQGTQVTVSS | high polyreactivity
QVQLVESGGGLVQAGGSLRLSCAASGNIFHKNAMGWYSQAPGKERELVASISWSGGSTYYADSVKGRFTISRDNAKNTVYLQMKSLKPEDTAVYYCATDAFGYPGNRYALNDYWGQGTQVTVSS | low polyreactivity
QVQLVESGGGLVQAGGSLRLSCAASGNIFIKNAMGWYRQAPGKERELVAAISFSGGSTYYADSVKGRFTISRDNAKNTVYLQMNSLKPEDTAVYYCNAVRRQARQYDYWGQGTQVTVSS | high polyreactivity
QVQLVESGGGLVQAGGSLRLSCAASGNIFIYNAMGWNRQAPGKERELVAAISVSGGDTYYADSVKGRFTISRDNAKYTVYLQLNSLKPEDTAVYYCAAEAEYIELDYWGQGTQVTVSS | low polyreactivity
QVQLVESGGGLVQAGGSLRLSCAASGNIFPAYAMGWYRQAPGKERELVAAISKSGGRTYYAESVKGRFTISRDNAKNTVYLQMNSLKQEDTAVYYALLTVRRAVPYSVRYDYWGQGTQVTVSS | high polyreactivity
QVQLVESGGGLVQAGGSLRLSCAASGNIFPIYPMGWYRQAPGKERELVASIYRGGTTYYADSVKGRFTISRDNAKNTVYLQMNSLKPEETAVYYCAVYSPRLRRVHTRGYWGQGTQVTVSS | high polyreactivity
QVQLVESGGGLVQAGGSLRLSCAASGNIFPPNTMGWYRQAPGKERELVAVITWSDGGTYADSVKGRFTISRDNAKNTVYLQMNSLKPEDSAVYYCNADYYFAAPKGEYTAWYDYWGQGTQVTVSS | low polyreactivity
QVQLVESGGGLVQAGGSLRLSCAASGNIFPPYAMGWYRQAPGKERELVAAITRSGASTYYADSVKGRFTISRDNAKNTVYLQMNSLKPEDTAVYYCAVGVPGGYWKYYYWGQGTQVTVSS | high polyreactivity
QVQLVESGGGLVQAGGSLRLSCAASGNIFPWYAMGWYRQAPGKERELVASITVSGGRTYYADSVKGRFTISRDNAKNTVYLQMNSLKPEDTAVYYCNKYLVWYVPGAYNSWGQGTQVTVSS | high polyreactivity
QVQLVESGGGLVQAGGSLRLSCAASGNIFPYYPMGWYRQAPGKERELVASISRSGGSTYYADSVKGRFTISRDNAKNTVYLQMNSLKPEDTAVYYCAKRTPYYGFGFFHPARGYGYWGQGTQVTVSS | low polyreactivity
QVQLVESGGGLVQAGGSLRLSCAASGNIFRGYTMGWSRQAPGKERELVAAISYSGGSTYADSVKGRFTISRDNAKNTVYLQMNSLKPEDTAVYYCNTDTSVDVRFDYWGQGTQVTVSS | low polyreactivity
QVQLVESGGGLVQAGGSLRLSCAASGNIFRPYTMGWYRQAPGKERELVARISSGGSTNYADSVKGRFTISRDNAKNTVYLQMNSLKPEDTAVYYCNTVFRGSSTRGYDYWGQGTQVTVSS | high polyreactivity
QVQLVESGGGLVQAGGSLRLSCAASGNIFRRYAMGWYRQAPGKERELVAAISISGGNTYYADSVKGRFTISRDNAKNTVYLQMNSLKPEDTAVYYCNAVGRYSEYGYWGQGTQVTVSS | high polyreactivity
QVQLVESGGGLVQAGGSLRLSCAASGNIFRYYTMGWYRQAPGKERELVATISYADSVKGRFTISRDNAKNTVYLQMNSLKPEDTAVYYCKADFAPWDKQDYPYDYDYWGQGTQVTVSS | low polyreactivity
QVQLVESGGGLVQAGGSLRLSCAASGNIFSDNAMGWYRQAPGKERELVAAITSGGSTIYADSVKGRFTISRDNAKNTVYLQMNSLKPEDTAVYYCAADISYRHFLFDFWGQGTQVTVSS | low polyreactivity
QVQLVESGGGLVQAGGSLRLSCAASGNIFSDYAMGWYRQAPGKERELVAAISSGGNTNYADSVKRRFSISRDNAKNTVYLEMNSLKPEDTAVYYCAAVYNTTYTLLPEYSDVKYYYWGQGTQVTVSS | low polyreactivity
QVQLVESGGGLVQAGGSLRLSCAASGNIFSFNDMGWYRQAPGKERELVAAITSSDSTNYADSVKGRFTISRDNAKNTVYLQMNSLKPEDTAVFYCATEILTAARDTVVYQFYLGYYYWGQGTQVTVSS | low polyreactivity
QVQLVESGGGLVQAGGSLRLSCAASGNIFSFNDMGWYRQAPGKERELVAGITTSESTNYADSVKGRFTISRDNAKNTVYLQMNSLKPEDTAVYYCATEILTAARDTVVYQFYLGYYYWGQGTQVTVSS | low polyreactivity
QVQLVESGGGLVQAGGSLRLSCAASGNIFSRNAMGWYRQAPGKERELVASIDNSTSGTYYADSVKGRFTISRDNAKNTVYLQMKSLKPEDTAVYYCAATPLVDGSSIPREGDYWGQGTQVSVSS | low polyreactivity
QVQLVESGGGLVQAGGSLRLSCAASGNIFSRYAMGWYRQAPGKERELVASISRGGRTNYADSVKGRFTISRDNAKNTVYLQMNSLKPEDTAVYYCAKGGKGYWHPTGPYPFNYWGQGTQVTVSS | high polyreactivity

Sequence | polyreactivity (PSR sort gate)
QVQLVESGGGLVQAGGSLRLSCAASGNIFSSNAMGWYRQAPGKERELDAAITRSGGSTYYADSVKGRFTISRDNAKNTVYLQMNSLKPEDTAVYYCAARHYPRNSWGYDYWGQGTQVTVSS | high polyreactivity
QVQLVESGGGLVQAGGSLRLSCAASGNIFSYNAMAWYRQAPGKERELVAAITTSSGRTYYADSVKGRFTISRDIAKNTVYLQMNSLKPEVTAVYYCNAVQRYQMGYWGQGTQVTVSS | high polyreactivity
QVQLVESGGGLVQAGGSLRLSCAASGNIFSYNAMGWYRQAPGKEREFVAAITFSSDRTYYADSVKGRFTISRDNAKNTVYLQMNSLKPEDTAVYYCAADTRYINYKRYYYWGQGTQVTVSS | high polyreactivity
QVQLVESGGGLVQAGGSLRLSCAASGNIFSYYAMGWYRQAPGKERELVAAIYTGGSTYYADSVKGRFTISRDNAKNTVYLQMNSLKPEDTEVYYCAASGLNLRQDYDYWGQGTQVTVSS | low polyreactivity
QVQLVESGGGLVQAGGSLRLSCAASGNIFVEYAMGWYRPAPGKERELVAAITNSGGRTHYSDSVKGRFTISRDNAKNTVYLQMNSLKPEDSEVYFCAAPTKYRSRRYYWGQGTQVTVSS | high polyreactivity
QVQLVESGGGLVQAGGSLRLSCAASGNIFVEYAMGWYRQAPGKERELVAAITNSGGRTHYADSVKGRFTISRDNAKNTVYLQMNSLKPEDTAVYYCAAPTKYRSRRYYWGQGTQVTVSS | high polyreactivity
QVQLVESGGGLVQAGGSLRLSCAASGNIFVFYVMGWYRQAPGKERELVASISSTGNTYYADSVKGRFTISRDNAKNTVYLQMNSLKPEDTAVYYCAADSHQNVSGWLRWPRMDYWGQGTQVTVSS | low polyreactivity
QVQLVESGGGLVQAGGSLRLSCAASGNIFVINAMGWYRQAPGKERELVAAINWTGGNTYYADSVKGRFTISRDNAKNTFYLQMNSLKPEDTAVYYSAADRRWFVWGLGYWGQGTQVTVSS | low polyreactivity
QVQLVESGGGLVQAGGSLRLSCAASGNIFVRYTMGWYRQAPGTERELVARITSGGSTYYADSVKGRFTISRDNAKNTVYLQMNSLKPEDTAVYYCAAAIGTRLYSYYYWGQGTQVTVSS | high polyreactivity
QVQLVESGGGLVQAGGSLRLSCAASGNIFVTYAMGWYRQAPGKERELVAGITSSDDSTYYADSVKGRFTISRDNAKNTVYLQMNSLKPEDPAVYYCATYYWEVGIGQYYYWGQGTQVTVSS | low polyreactivity
QVQLVESGGGLVQAGGSLRLSCAASGNIFVVNAMGWYRQAPGKERELVAGITTNGGRTFYADSVKGRFTISRDNAKNTVYLQINSLKPEDTAVYYWNARHGRHRRTRFAKYDYWGQGTQVTVSS | high polyreactivity
QVQLVESGGGLVQAGGSLRLSCAASGNIFYDYGMGWYRQAPGKERELVAGISSVDHTYYADSVKGRFTISRDNAKNTVYLQMNSLKPEDTAVYYCARDTELYVRWLDYWGQGTQVTVSS | low polyreactivity
QVQLVESGGGLVQAGGSLRLSCAASGNIFYGYAMGWYRQAPGKERELVAAISGSSTYYADSVKGRFTISRDNAKNTVYLEMNSLKPEDTAVYYCAVPQYLYLQAGHGYRYYYWGQGTQVTVSS | high polyreactivity
QVQLVESGGGLVQAGGSLRLSCAASGNIFYLYAMGWYRQAPGKEREFSTSYADSVKGRFTISRDNAKNTVYLQMNSLKPEDTAVYYCAAYKSRGPYYYLFDYWGQGTQVTVSS | low polyreactivity
QVQLVESGGGLVQAGGSLRLSCAASGNIFYPYAMGWYRQAPGKERELVAAISWSDGSTYYADSVKGRFTISRDNAKNTVYLQMNILKPEDTAVYYCAAEAYISNYYGRDYWGQGTQVTVSS | high polyreactivity
QVQLVESGGGLVQAGGSLRLSCAASGNIFYRNAIGWYRQAPGKERELVAAIRGGGSTNYADSVKGRFTISRDNAKNTVYLQMNSLKPEDTAVYYCNTVRSPPGHDYWGQGTQVTVSS | low polyreactivity
QVQLVESGGGLVQAGGSLRLSCAASGNIFYTYAMGWYRPAPGKERELVAAITWSGGSTYYADSVKGRFTISRDKAKKTVYLQMNSLKPEDTAVYYCAADSLGYYYSGGYYSIYDHWGQGTQVTVSS | high polyreactivity
QVQLVESGGGLVQAGGSLRLSCAASGNIFYTYAMGWYRQAPGNERELVAGISSDASTTYADSVKGRFTISRDNAKNTVYLPMKSLNPEDTAVYYCPADITGIVWYVYYYWGQGTQVTVSS | low polyreactivity
QVQLVESGGGLVQAGGSLRLSCAASGNIFYVYVMGWYRQAPGKERELVASITSGASTYYADSVKGRFTISRDNAKNTVYLQMNSLKPEDTAVYYCAAEALGGAGDYSTLYIYDYWGQGTQVTVSS | low polyreactivity
QVQLVESGGGLVQAGGSLRLSCAASGNIFYWYAMGWYRQAPGKEREFVAAITRSGGSTSYADSVKGRFTISRDNAKNTVYLQMNSLKPEDTAVYYCNATHWVHFQEFYSWGPGTQVTVSS | low polyreactivity
